The values below come from the supplement of paper PMC9112550, “Optimization of the antimicrobial peptide Bac7 by deep mutational scanning” (BMC Biology, 2022).

This data set has as its system Escherichia coli TOP10. In words: shrunken log2 fold change of peptide-encoding DNA abundance (4.5 h post-induction vs induction); higher = less antimicrobial activity (less host growth inhibition). Particulars: time post-induction: 4.5 h; library: site-saturation at positions 5, 18, 19, 20.
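Note: peptides expressed intracellularly from a pBAD plasmid library in pooled LB shake-flask culture, induced with 0.3% L-arabinose, DNA abundance read by NGS, three biological replicates, DESeq2 with apeglm shrinkage.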

In the case of RRIRGRPPRLPRPRPRPIHDPRP, the “shrunken log2 fold change” value is -0.126. RRIRVRPPRLPRPRPRPRQGPRP: the “shrunken log2 fold change” value is 0.317. With RRIRPRPPRLPRPRPRPLEKPRP the figure was 0.261; with RRIRNRPPRLPRPRPRPCQIPRP, -0.0177.

Turning to RRIRGRPPRLPRPRPRPNCMPRP, the “shrunken log2 fold change” value amounted to 0.196. With RRIRRRPPRLPRPRPRPIVQPRP the figure was -0.0768; with RRIRARPPRLPRPRPRPRQAPRP, 0.414. With RRIRVRPPRLPRPRPRPYQKPRP the figure was -0.0384; with RRIRERPPRLPRPRPRPIAEPRP, 0.255; with RRIRKRPPRLPRPRPRPAFHPRP, 0.0641.

Regarding RRIRLRPPRLPRPRPRPHQVPRP, the “shrunken log2 fold change” value worked out at 0.00465.

Turning to RRIRDRPPRLPRPRPRPTPQPRP, the “shrunken log2 fold change” value is 0.0786. With RRIRPRPPRLPRPRPRPQWEPRP the figure was 0.155; with RRIRVRPPRLPRPRPRPNPNPRP, -0.108. With RRIRARPPRLPRPRPRPSNIPRP the figure was -0.447; with RRIRERPPRLPRPRPRPWTFPRP, -0.292; with RRIRARPPRLPRPRPRPGMEPRP, 0.161. Consider RRIRIRPPRLPRPRPRPKTVPRP, for which the “shrunken log2 fold change” value stood at 0.0407. For the sequence RRIRLRPPRLPRPRPRPSQMPRP, the “shrunken log2 fold change” value was -0.261. In the case of RRIRQRPPRLPRPRPRPINIPRP, the “shrunken log2 fold change” value was -0.21. With RRIRYRPPRLPRPRPRPFNAPRP the figure was -2.15; with RRIRVRPPRLPRPRPRPPARPRP, 0.76. RRIRFRPPRLPRPRPRPHVSPRP: the “shrunken log2 fold change” value was -0.135.

Turning to RRIRRRPPRLPRPRPRPLMRPRP, the “shrunken log2 fold change” value was determined as 1.07. With RRIRYRPPRLPRPRPRPWKRPRP the figure was 0.047. In the case of RRIRVRPPRLPRPRPRPRPPPRP, the “shrunken log2 fold change” value was 0.843. Take RRIRKRPPRLPRPRPRPSASPRP: the “shrunken log2 fold change” value was determined as 0.288.

Regarding RRIRPRPPRLPRPRPRPNDTPRP, the “shrunken log2 fold change” value is -0.338.

Take RRIRVRPPRLPRPRPRPQTGPRP: the “shrunken log2 fold change” value is -0.0393. With RRIRHRPPRLPRPRPRPYQRPRP the figure was 0.0916. On to RRIRQRPPRLPRPRPRPLHMPRP, for which the “shrunken log2 fold change” value was -0.384. With RRIRTRPPRLPRPRPRPRIHPRP the figure was 0.0773; with RRIRDRPPRLPRPRPRPICQPRP, 0.0244. In the case of RRIRSRPPRLPRPRPRPYQQPRP, the “shrunken log2 fold change” value is -2.39.

For the sequence RRIRTRPPRLPRPRPRPCWPPRP, the “shrunken log2 fold change” value amounted to 0.0465. With RRIRIRPPRLPRPRPRPVNFPRP the figure was -0.0259; with RRIRWRPPRLPRPRPRPVEMPRP, 0.206.

Consider RRIRNRPPRLPRPRPRPLMRPRP, for which the “shrunken log2 fold change” value is 0.627. Take RRIRERPPRLPRPRPRPQMQPRP: the “shrunken log2 fold change” value was -0.173. With RRIRRRPPRLPRPRPRPWYDPRP the figure was -0.25. With RRIRRRPPRLPRPRPRPRREPRP the figure was 0.435.

Consider RRIRNRPPRLPRPRPRPWRLPRP, for which the “shrunken log2 fold change” value turned out to be 0.0636. With RRIRSRPPRLPRPRPRPCDYPRP the figure was -0.238; with RRIRTRPPRLPRPRPRPIDSPRP, -0.162; with RRIRERPPRLPRPRPRPISHPRP, -0.678. RRIRHRPPRLPRPRPRPGWGPRP: the “shrunken log2 fold change” value came out at 0.0673. With RRIRNRPPRLPRPRPRPNHDPRP the figure was -0.602. For RRIRLRPPRLPRPRPRPKFKPRP, the “shrunken log2 fold change” value was -0.147. With RRIRRRPPRLPRPRPRPYFPPRP the figure was 0.31. In the case of RRIRPRPPRLPRPRPRPEYKPRP, the “shrunken log2 fold change” value was -0.293. With RRIRARPPRLPRPRPRPSWYPRP the figure was -0.25; with RRIRKRPPRLPRPRPRPANWPRP, 0.596; with RRIRPRPPRLPRPRPRPHMSPRP, -0.27. With RRIRMRPPRLPRPRPRPGIWPRP the figure was 0.379; with RRIRARPPRLPRPRPRPWDNPRP, 0.0421; with RRIRRRPPRLPRPRPRPVTCPRP, -0.108. With RRIRHRPPRLPRPRPRPYYYPRP the figure was -1.31.

As to RRIRRRPPRLPRPRPRPWNPPRP, the “shrunken log2 fold change” value was -0.212.

On to RRIRDRPPRLPRPRPRPYCMPRP, for which the “shrunken log2 fold change” value was -0.28.

For RRIRRRPPRLPRPRPRPQRMPRP, the “shrunken log2 fold change” value is 0.13. RRIRDRPPRLPRPRPRPRMFPRP: the “shrunken log2 fold change” value was -0.0535. With RRIRMRPPRLPRPRPRPYNDPRP the figure was 0.0185. With RRIRPRPPRLPRPRPRPHCAPRP the figure was 0.228; with RRIRFRPPRLPRPRPRPKKNPRP, 0.0769; with RRIRERPPRLPRPRPRPDDCPRP, -0.0573.

For RRIRPRPPRLPRPRPRPAGMPRP, the “shrunken log2 fold change” value is -0.00962. With RRIRERPPRLPRPRPRPISPPRP the figure was -0.356; with RRIRLRPPRLPRPRPRPPKTPRP, 0.175. As to RRIRGRPPRLPRPRPRPFDHPRP, the “shrunken log2 fold change” value was -0.0514. RRIRYRPPRLPRPRPRPHDTPRP: the “shrunken log2 fold change” value was -0.313.

Take RRIRWRPPRLPRPRPRPFRPPRP: the “shrunken log2 fold change” value was -0.165. With RRIRRRPPRLPRPRPRPNQTPRP the figure was 0.0193. Turning to RRIRYRPPRLPRPRPRPTNQPRP, the “shrunken log2 fold change” value was -0.575. With RRIRWRPPRLPRPRPRPWNGPRP the figure was 0.0206. With RRIRHRPPRLPRPRPRPLLDPRP the figure was -0.117. With RRIRRRPPRLPRPRPRPDQNPRP the figure was 0.327; with RRIRRRPPRLPRPRPRPSHPPRP, 0.167; with RRIRHRPPRLPRPRPRPNDRPRP, -0.104. For RRIRARPPRLPRPRPRPHNDPRP, the “shrunken log2 fold change” value was -0.34. With RRIRPRPPRLPRPRPRPWWHPRP the figure was 0.0413; with RRIRERPPRLPRPRPRPSLKPRP, -0.217; with RRIRRRPPRLPRPRPRPKITPRP, -0.226. With RRIRARPPRLPRPRPRPDWGPRP the figure was 0.272. RRIRNRPPRLPRPRPRPWYWPRP: the “shrunken log2 fold change” value was -0.109.

Regarding RRIRFRPPRLPRPRPRPEDKPRP, the “shrunken log2 fold change” value is -0.0503. Consider RRIRTRPPRLPRPRPRPSIFPRP, for which the “shrunken log2 fold change” value is -0.122. Turning to RRIRARPPRLPRPRPRPNWAPRP, the “shrunken log2 fold change” value came out at 0.27. Regarding RRIRQRPPRLPRPRPRPYFEPRP, the “shrunken log2 fold change” value is -0.524. In the case of RRIRKRPPRLPRPRPRPWSEPRP, the “shrunken log2 fold change” value is 0.00538. With RRIRGRPPRLPRPRPRPYELPRP the figure was -0.036; with RRIRVRPPRLPRPRPRPDNWPRP, -0.343. With RRIRARPPRLPRPRPRPKAHPRP the figure was 0.491; with RRIRPRPPRLPRPRPRPPWNPRP, 0.77; with RRIRERPPRLPRPRPRPLEQPRP, -0.0811. With RRIRPRPPRLPRPRPRPAVTPRP the figure was 0.0942; with RRIRNRPPRLPRPRPRPNPRPRP, 0.286; with RRIRKRPPRLPRPRPRPCMHPRP, -0.0309. With RRIRDRPPRLPRPRPRPQLQPRP, the “shrunken log2 fold change” value is -0.16. With RRIRFRPPRLPRPRPRPAHWPRP the figure was 0.539. With RRIRWRPPRLPRPRPRPMMHPRP the figure was 0.159; with RRIRNRPPRLPRPRPRPHVRPRP, -0.12. With RRIRGRPPRLPRPRPRPEAFPRP the figure was 1.86; with RRIRWRPPRLPRPRPRPQKCPRP, -0.382; with RRIRRRPPRLPRPRPRPYAYPRP, -0.189.

In the case of RRIRSRPPRLPRPRPRPPHSPRP, the “shrunken log2 fold change” value turned out to be 0.113. As to RRIRVRPPRLPRPRPRPDCHPRP, the “shrunken log2 fold change” value was -0.296. With RRIRGRPPRLPRPRPRPAAMPRP the figure was 1.54.

For RRIRDRPPRLPRPRPRPEAMPRP, the “shrunken log2 fold change” value was -0.00943. For RRIRPRPPRLPRPRPRPNGMPRP, the “shrunken log2 fold change” value came out at 0.171. With RRIRGRPPRLPRPRPRPGYVPRP the figure was -0.00987; with RRIRHRPPRLPRPRPRPIYIPRP, -0.156; with RRIRFRPPRLPRPRPRPYCNPRP, -1.06. With RRIRCRPPRLPRPRPRPVPGPRP the figure was 0.0667.

In the case of RRIRNRPPRLPRPRPRPMPFPRP, the “shrunken log2 fold change” value turned out to be 0.00489.

Regarding RRIRTRPPRLPRPRPRPEYWPRP, the “shrunken log2 fold change” value is -0.00483. For RRIRHRPPRLPRPRPRPVVAPRP, the “shrunken log2 fold change” value was -0.233.

Regarding RRIRFRPPRLPRPRPRPYKHPRP, the “shrunken log2 fold change” value was -0.911.

Take RRIRHRPPRLPRPRPRPINTPRP: the “shrunken log2 fold change” value is -0.249. For the sequence RRIRMRPPRLPRPRPRPHFAPRP, the “shrunken log2 fold change” value was 0.194. With RRIRGRPPRLPRPRPRPQNHPRP the figure was -0.18. With RRIRLRPPRLPRPRPRPLSLPRP the figure was -0.145; with RRIRQRPPRLPRPRPRPWLKPRP, 0.0706. With RRIRSRPPRLPRPRPRPCSAPRP the figure was -0.0813; with RRIRDRPPRLPRPRPRPSGVPRP, 0.119; with RRIRFRPPRLPRPRPRPNPKPRP, 0.0977.
